The assay concerns N. benthamiana epidermal leaf cells. As to the kind of experiment: Confocal fluorescence microscopy, subcellular localization. The assay is classed as cell-based. To be noted: Cerulean fusion, transiently transformed N. benthamiana epidermal leaf cells. On the procedure:
A modified version of a previously described procedure was used for the transient transformation of N. benthamiana. An overnight culture of agrobacteria was inoculated in DYT and incubated at 28°C one day before infiltration. Bacteria were then centrifuged at 4000 g and resuspended in infiltration medium (5% (w/v) Saccharose; 0.01% (w/v) MgSO4; 0.01% (w/v) Glucose; Acetosyringone 450 μM) to an OD600 of 0.4–0.8. Resuspended bacteria were kept on ice for 1–2 h prior to infiltration. For co‐infiltration, bacteria solutions were mixed in equal quantities, and Agrobacterium strain GV3101:p19 expressing the p19 silencing inhibitor was added to each mix. Infiltration of the bacteria solution was performed with a 1 mL syringe onto the abaxial side of 3‐ to 4‐week‐old plants. Plants were kept under continuous light before microscopy analysis. For ß‐estradiol inducible constructs, plants were sprayed on the abaxial side of infiltrated leaves with an estradiol solution (ß‐estradiol 20 μM; Tween‐20 0.1% (w/v)) prior to imaging.
For fluorescence imaging, a Zeiss LSM 780 confocal microscope (40× water immersion objective, Zeiss C‐PlanApo, NA 1.2) was used. YFP was excited at 514 nm and Cerulean at 458 nm. Signal recording of each fluorophore was done within its maximum emission peak while avoiding auto‐fluorescence above 650 nm. […]

B1: EIN2C^479–1294: C‐terminal part of EIN2 fused to Cerulean (CER), FRET donor (protein)
chain: NALSYPSVQEEEIERTETRRNEDESIVRLESRVKDQLDTTSVTSSVYDLPENILMTDQEIRSSPPEERELDVKYSTSQVSSLKEDSDVKEQSVLQSTVVNEVSDKDLIVETKMAKIEPMSPVEKIVSMENNSKFIEKDVEGVSWETEEATKAAPTSNFTVGSDGPPSFRSLSGEGGSGTGSLSRLQGLGRAARRHLSAILDEFWGHLYDFHGQLVAEARAKKLDQLFGTDQKSASSMKADSFGKDISSGYCMSPTAKGMDSQMTSSLYDSLKQQRTPGSIDSLYGLQRGSSPSPLVNRMQMLGAYGNTTNNNNAYELSERRYSSLRAPSSSEGWEHQQPATVHGYQMKSYVDNLAKERLEALQSRGEIPTSRSMALGTLSYTQQLALALKQKSQNGLTPGPAPGFENFAGSRSISRQSERSYYGVPSSGNTDTVGAAVANEKKYSSMPDISGLSMSARNMHLPNNKSGYWDPSSGGGGYGASYGRLSNESSLYSNLGSRVGVPSTYDDISQSRGGYRDAYSLPQSATTGTGSLWSRQPFEQFGVAERNGAVGEELRNRSNPINIDNNASSNVDAEAKLLQSFRHCILKLIKLEGSEWLFGQSDGVDEELIDRVAAREKFIYEAEAREINQVGHMGEPLISSVPNCGDGCVWRADLIVSFGVWCIHRVLDLSLMESRPELWGKYTYVLNRLQGVIDPAFSKLRTPMTPCFCLQIPASHQRASPTSANGMLPPAAKPAKGKCTTAVTLLDLIKDVEMAISCRKGRTGTAAGDVAFPKGKENLASVLKRYKRRLSNKPVGMNQDGPGSRKNVTAYGSLG
modifications: left off: Cerulean, end not stated, kept
notes: C‐terminal part of EIN2 fused to Cerulean (CER), FRET donor
Take B1: the subcellular localization result was “localized in the nucleus, ER, and cytoplasm”.

Source of the values: article PMC12871931, “The importin‐alpha superfamily engages in ethylene signaling by shuttling [sequence] INSENSITIVE 2 from the endoplasmic reticulum to the nucleus” (The Febs Journal, 2025).
